Measured values from publication PMC8423587 (Nature chemical biology, 2019).

Target: T1, ELIC 7′C pore mutant (L238C in the cysteine-free background C300S/C313S) (Erwinia (as in the name Erwinia …))
T1 chain: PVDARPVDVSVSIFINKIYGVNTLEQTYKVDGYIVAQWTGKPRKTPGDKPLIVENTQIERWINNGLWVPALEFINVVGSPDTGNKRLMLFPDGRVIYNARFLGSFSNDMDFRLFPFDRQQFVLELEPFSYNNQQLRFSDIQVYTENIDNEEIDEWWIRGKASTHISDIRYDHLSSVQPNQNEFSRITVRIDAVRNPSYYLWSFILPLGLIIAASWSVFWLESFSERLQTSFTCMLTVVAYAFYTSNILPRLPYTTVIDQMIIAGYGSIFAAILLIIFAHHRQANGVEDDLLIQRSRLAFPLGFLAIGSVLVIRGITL
Test: crystal structure

B1: nanobody 72 (VHH)
VHH: QVQLQESGGGLVQAGGSLRLSCAASGRIFSTNVMGWFRQAPGKEREFVATVGRIGGSTVYADFVKGRFTLSRDNAKNMVYLQMNSLKPEDTAVYYCGARIGGSDRLAPENYGYWGQGTQVTVSS
  stoichiometry N: 5 Nb72 per ELIC pentamer
